The target in this test is C-terminally strep-tagged wild-type GRK5 (human) (UniProt P34947). Kind of test: ITC. For orientation: ITC needs no label: the signal is the heat of the interaction.
Chain of UniProt P34947 (P34947 whole entry): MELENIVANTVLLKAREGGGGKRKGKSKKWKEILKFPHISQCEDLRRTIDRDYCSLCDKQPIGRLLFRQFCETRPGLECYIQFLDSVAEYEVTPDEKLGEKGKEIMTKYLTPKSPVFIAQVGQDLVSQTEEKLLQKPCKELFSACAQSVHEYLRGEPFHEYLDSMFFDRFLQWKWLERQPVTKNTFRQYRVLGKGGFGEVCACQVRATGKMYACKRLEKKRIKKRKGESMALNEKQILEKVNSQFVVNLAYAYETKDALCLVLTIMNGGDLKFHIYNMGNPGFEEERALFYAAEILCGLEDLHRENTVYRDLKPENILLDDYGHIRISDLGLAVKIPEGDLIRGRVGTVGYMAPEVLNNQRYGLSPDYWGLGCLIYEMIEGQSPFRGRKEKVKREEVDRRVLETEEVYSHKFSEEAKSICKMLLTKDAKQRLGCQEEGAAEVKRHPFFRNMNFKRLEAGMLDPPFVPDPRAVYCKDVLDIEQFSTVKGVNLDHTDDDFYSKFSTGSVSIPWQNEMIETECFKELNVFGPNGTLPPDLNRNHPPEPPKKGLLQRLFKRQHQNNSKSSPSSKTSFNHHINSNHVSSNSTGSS

The substance “wild-type rat calmodulin (from UniProt P0DP29 1-149) (natural protein; other documents disagree on this pair)” registered a Kd of 278 nM and a dH of 4.3 kcal/mol.

As usually defined, the Kd is a measure of binding affinity in units of concentration. A higher Kd goes with weaker binding.

The values are drawn from PMC7855534.
